Data from article PMC4338043.
Like-named read-outs stand apart in the source and are kept apart here.

Assays:
Test in all cases: AUC
[1] = molecular target: Bacillus anthracis inosine-5'-monophosphate dehydrogenase (Bacillus thuringiensis serovar monterrey BGSC 4AJ1 (sequence 100% identical to B. anthracis IMPDH))
[2] = molecular target: Bacillus anthracis inosine-5'-monophosphate dehydrogenase (Bacillus thuringiensis serovar monterrey BGSC 4AJ1 (sequence 100% identical to B. anthracis IMPDH)); remark: listed apart in the source
[3] = molecular target: Klebsiella pneumoniae inosine-5'-monophosphate dehydrogenase (Klebsiella pneumoniae strain 52145)
[4] = molecular target: Klebsiella pneumoniae inosine-5'-monophosphate dehydrogenase (Klebsiella pneumoniae strain 52145); remark: listed apart in the source

stoichiometry N [3]	stoichiometry N [4]	Substance	stoichiometry N [1]	stoichiometry N [2]
–	–	Bacillus anthracis inosine-5'-monophosphate dehydrogenase (from UniProt A0A0K0Q667 1-487) (enzyme)	4	8
4	8	Klebsiella pneumoniae inosine-5'-monophosphate dehydrogenase (enzyme)	–	–
